Experimental data from IntAct's records for PubMed 19363481.

B1: DNA repair protein rad60 (Schizosaccharomyces pombe (strain ATCC 38366 / 972)), Q9USX3 (parent)
chain: MDNLDEDDLAFFSKPIKKPPLNYAKQLIASSSDSEEESELDTNKQALEHINAQKNITHNENKSAEPLSRQSTILDADEGNQDVSDTTPNACLNEGRHSPKSAISCVTQPVSPVYNTRAAANLRNNSINSEAALSTTSSLLDDDFARRLEEIDRQVQEFEKSSSDMDVQIHTHKREIEEDDDNTSADVPLLKHSKSDHSTLYHSKSEFSTNEPVISVVLQLAVIGQRIPNSNISLPRDWEAPLFFKVKSNQQFRRVRIAYSERKKVDNVVLVFQNQRLWDYGTPKGAGMLKVDTRLVVHAYCHSDFISLKRIKELEVEKLSSVTEDSTAQTCKLITLLLRSSKSEDLRLSIPVDFTVKDLIKRYCTEVKISFHERIRLEFEGEWLDPNDQVQSTELEDEDQVSVVLD
partner: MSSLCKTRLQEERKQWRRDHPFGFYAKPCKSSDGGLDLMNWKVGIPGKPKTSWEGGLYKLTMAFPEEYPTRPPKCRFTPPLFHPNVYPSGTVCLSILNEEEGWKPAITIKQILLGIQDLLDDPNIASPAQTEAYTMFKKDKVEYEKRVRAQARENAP

Variants of: B1
Details: with ubc9_schpo hus5, P40984

Question: How did the “effect of a mutation on the interaction” value turn out when MDNLDEDDLAFFSKPIKKPPLNYAKQLIASSSDSEEESELDTNKQALEHINAQKNITHNENKSAEPLSRQSTILDADEGNQDVSDTTPNACLNEGRHSPKSAISCVTQPVSPVYNTRAAANLRNNSINSEAALSTTSSLLDDDFARRLEEIDRQVQEFEKSSSDMDVQIHTHKREIEEDDDNTSADVPLLKHSKSDHSTLYHSKSEFSTNEPVISVVLQLAVIGQRIPNSNISLPRDWEAPLFFKVKSNQQFRRVRIAYSERKKVDNVVLVFQNQRLWDYGTPKGAGMLKVDTRLVVHAYCHSDFISLKRIKELEVEKLSSVTEDSTAQTCKLITLLLRSSKSEDLRLSIPVDFTVKDLIKRYCTEVKISFHERIRLEFRGEWLDPNDQVQSTELEDEDQVSVVLD [E380R] was run?
Answer: Its value is “disrupting interaction”.
